Results reported in patent US20190022241A1 (AbbVie / Abbott, published 2019).
Blank lines part the entries; values can stand above or below the binder they belong to.

Tests used:
hSEZ6-ECD-His = biological target: T1, hSEZ6-ECD-His (human, UniProt Q53EL9 20-925); experiment: bio-layer interferometry (ForteBio RED) or surface plasmon resonance (Biacore 2000) on human SEZ6-His; the table does not say which; column Hu Affinity (Kd, nM)
T1 construct: the whole entry is named; also called recombinant SEZ6-His; human recombinant SEZ6-His
From the text: (§1) Various methods were used to analyze the binding and immunochemical characteristics of selected SEZ6 modulators generated as set forth above.

[1] = biological target: T2, mouse SEZ6 on Neuro2a cells (mouse, UniProt Q7TSK2 20-991); experiment: flow cytometry, Neuro2a cells, 5 ug/mL antibody
T2 construct: endogenous on Neuro2a cells; also called murine SEZ6; mSEZ6
Method: (§2) Briefly 1×10⁵ cells per well of Neuro2a, RIN-5mF, or yeast displaying cynomolgus SEZ6 cells were incubated for 30 minutes with 50 μL PBS (2% FCS) buffer with 5 μg/mL antibody. […] After incubating for 15 minutes cells were washed twice with the PBS buffer and re-suspended in the same with DAPI for flow cytometry analysis of Neuro2a and Rin-m5F or buffer without DAPI for flow cytometric analysis of yeast cells with cSEZ6.

[2] = biological target: T3, rat SEZ6 on RIN-m5F cells (rat, UniProt Q7TSK2 20-991 (mouse entry)); experiment: flow cytometry, RIN-m5F cells, 5 ug/mL antibody
T3 construct: endogenous on RIN-m5F cells; also called rSEZ6
T3 chain: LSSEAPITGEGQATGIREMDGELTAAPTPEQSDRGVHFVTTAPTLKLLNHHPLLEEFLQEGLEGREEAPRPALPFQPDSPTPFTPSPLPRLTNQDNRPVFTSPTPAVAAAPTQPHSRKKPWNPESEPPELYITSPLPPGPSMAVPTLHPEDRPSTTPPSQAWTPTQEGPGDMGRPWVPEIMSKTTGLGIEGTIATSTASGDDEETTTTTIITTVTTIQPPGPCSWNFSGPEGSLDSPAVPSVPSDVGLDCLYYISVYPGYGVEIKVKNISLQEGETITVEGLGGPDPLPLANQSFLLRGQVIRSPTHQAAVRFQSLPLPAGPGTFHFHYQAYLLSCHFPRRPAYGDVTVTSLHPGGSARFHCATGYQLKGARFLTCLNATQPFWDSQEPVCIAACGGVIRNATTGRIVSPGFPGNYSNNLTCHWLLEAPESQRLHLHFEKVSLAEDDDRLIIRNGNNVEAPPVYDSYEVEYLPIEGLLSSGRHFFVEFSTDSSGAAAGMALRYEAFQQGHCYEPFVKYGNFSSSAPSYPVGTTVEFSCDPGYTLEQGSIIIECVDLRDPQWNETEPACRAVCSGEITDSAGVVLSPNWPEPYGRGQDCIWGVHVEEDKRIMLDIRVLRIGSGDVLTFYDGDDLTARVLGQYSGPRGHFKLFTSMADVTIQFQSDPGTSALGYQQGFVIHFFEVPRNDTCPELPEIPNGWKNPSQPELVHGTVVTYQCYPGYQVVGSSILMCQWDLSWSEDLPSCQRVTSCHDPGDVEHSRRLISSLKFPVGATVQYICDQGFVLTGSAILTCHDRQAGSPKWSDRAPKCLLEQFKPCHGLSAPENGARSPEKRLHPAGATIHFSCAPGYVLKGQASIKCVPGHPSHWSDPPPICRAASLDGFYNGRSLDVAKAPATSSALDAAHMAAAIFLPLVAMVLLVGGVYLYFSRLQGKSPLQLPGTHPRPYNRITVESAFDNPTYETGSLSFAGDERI
Method: as §2

human SEZ6L ECD-His = biological target: T4, human SEZ6L ECD-His (human, UniProt Q9BYH1 29-955); experiment: ELISA on plates coated with SEZ6L protein
T4 construct: whole entry named
T4 sequence: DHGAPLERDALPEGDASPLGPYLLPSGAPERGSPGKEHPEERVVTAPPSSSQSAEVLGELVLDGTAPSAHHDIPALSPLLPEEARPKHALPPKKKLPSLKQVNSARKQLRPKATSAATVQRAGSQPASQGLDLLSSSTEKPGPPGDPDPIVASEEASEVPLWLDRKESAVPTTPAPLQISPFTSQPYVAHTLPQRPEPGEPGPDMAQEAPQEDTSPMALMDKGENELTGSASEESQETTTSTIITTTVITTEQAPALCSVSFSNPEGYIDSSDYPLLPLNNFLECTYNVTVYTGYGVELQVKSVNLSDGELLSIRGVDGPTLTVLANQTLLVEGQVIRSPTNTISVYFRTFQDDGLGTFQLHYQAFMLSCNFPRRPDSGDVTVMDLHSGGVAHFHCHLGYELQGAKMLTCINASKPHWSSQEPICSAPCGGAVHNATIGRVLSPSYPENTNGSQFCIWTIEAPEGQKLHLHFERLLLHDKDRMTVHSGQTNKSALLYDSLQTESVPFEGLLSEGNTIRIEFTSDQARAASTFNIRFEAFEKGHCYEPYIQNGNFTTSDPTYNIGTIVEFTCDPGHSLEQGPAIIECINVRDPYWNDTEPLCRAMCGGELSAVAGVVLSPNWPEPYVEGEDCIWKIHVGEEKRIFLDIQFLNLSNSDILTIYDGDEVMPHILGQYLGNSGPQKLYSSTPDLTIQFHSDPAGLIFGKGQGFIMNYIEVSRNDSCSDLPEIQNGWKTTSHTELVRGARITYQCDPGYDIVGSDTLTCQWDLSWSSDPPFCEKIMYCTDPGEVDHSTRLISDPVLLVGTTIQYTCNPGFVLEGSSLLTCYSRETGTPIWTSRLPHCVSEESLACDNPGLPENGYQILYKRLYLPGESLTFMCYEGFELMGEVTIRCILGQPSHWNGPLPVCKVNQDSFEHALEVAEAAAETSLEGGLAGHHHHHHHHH
Method: To determine cross reactivity to family member proteins, SEZ6L and SEZ6L2, an ELISA-based assay was used. Plates were coated with SEZ6, SEZ6L, or SEZ6L2 proteins at 0.2 μg/mL in PBS overnight. After washing with PBS containing 0.05% (v/v) Tween 20 (PB ST), the wells were blocked with 2% (w/v) BSA in PBS (PB SA), 100 μL/well for 1 hour at room temperature. Antibody was then added at 1 μg/mL in 100 μL PBSA for 1 hour at room temperature. After washing with PBST, 100 μL/well HRP-labeled goat anti-mouse IgG diluted 1:2,000 in PBSA for 1 hour at room temperature. […] After developing, an equal volume of 2M H₂SO₄ was added to stop substrate development and analyzed by spectrophotometer at OD 450.

rSEZ6-ECD-His = biological target: T5, rSEZ6-ECD-His (rat, UniProt Q7TSK2 20-922 (mouse entry)); experiment: bio-layer interferometry (ForteBio RED) or surface plasmon resonance (Biacore 2000) on rat SEZ6-His; the table does not say which; column Rat XR (Kd, nM)
T5 construct: the whole entry is named; also called rat recombinant SEZ6-His; rat SEZ6 ECD
T5 chain: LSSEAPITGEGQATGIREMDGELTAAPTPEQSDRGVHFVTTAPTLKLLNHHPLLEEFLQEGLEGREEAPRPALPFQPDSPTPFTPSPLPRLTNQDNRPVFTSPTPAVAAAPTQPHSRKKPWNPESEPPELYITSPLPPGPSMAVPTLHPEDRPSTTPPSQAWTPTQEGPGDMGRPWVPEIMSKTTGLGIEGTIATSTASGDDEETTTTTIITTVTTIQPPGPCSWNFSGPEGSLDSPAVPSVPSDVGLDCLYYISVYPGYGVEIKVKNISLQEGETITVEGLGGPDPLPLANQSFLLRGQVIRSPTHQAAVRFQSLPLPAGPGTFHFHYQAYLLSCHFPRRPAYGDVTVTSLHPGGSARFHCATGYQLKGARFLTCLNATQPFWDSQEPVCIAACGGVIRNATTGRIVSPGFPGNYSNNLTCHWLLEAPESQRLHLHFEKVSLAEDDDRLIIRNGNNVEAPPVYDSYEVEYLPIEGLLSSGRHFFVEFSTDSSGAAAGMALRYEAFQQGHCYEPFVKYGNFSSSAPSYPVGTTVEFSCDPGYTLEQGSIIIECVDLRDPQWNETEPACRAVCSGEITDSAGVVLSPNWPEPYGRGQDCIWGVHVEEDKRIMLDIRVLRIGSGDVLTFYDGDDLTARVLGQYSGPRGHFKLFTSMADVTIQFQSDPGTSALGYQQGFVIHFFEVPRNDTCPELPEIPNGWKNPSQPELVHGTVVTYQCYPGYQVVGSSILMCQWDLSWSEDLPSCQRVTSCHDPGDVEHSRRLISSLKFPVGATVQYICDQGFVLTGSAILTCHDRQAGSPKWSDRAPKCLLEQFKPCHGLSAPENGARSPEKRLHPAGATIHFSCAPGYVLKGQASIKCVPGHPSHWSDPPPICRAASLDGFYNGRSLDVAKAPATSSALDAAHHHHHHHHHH
From the text: as §1

human SEZ6L2 ECD-His = biological target: T6, human SEZ6L2 ECD-His (human, UniProt Q6UXD5 28-843); experiment: mark of Table 5 for antibodies that bind SEZ6L2
T6 construct: whole entry named
T6 sequence (Q6UXD5 other isoform, or with tags, fused parts or gaps): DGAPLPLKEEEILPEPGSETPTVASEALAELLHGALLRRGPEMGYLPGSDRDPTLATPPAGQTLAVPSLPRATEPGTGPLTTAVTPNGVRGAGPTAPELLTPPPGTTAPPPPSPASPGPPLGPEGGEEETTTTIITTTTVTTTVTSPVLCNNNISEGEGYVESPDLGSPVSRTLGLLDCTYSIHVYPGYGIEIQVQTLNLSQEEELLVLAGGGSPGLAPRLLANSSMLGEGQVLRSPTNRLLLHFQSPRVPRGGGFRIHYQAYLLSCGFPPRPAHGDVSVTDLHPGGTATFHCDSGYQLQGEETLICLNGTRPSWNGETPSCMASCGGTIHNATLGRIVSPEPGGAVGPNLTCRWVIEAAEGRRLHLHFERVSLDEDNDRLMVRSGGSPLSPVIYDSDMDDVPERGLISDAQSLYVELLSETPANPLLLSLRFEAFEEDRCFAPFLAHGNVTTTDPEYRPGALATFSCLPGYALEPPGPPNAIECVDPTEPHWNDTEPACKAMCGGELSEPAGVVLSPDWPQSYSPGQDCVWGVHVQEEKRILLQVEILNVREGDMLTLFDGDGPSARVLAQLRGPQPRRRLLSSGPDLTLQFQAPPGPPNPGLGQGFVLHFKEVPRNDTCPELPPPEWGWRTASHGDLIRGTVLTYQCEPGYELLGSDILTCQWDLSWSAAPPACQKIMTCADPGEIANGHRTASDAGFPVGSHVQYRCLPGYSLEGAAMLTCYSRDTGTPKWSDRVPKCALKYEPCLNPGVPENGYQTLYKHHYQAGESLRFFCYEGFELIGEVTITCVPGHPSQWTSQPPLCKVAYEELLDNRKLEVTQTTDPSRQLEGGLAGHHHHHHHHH

[3] = biological target: T7, SEZ6 N3 (aa 170-335) on yeast (human, UniProt Q53EL9 189-354); experiment: yeast display, flow cytometry;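 further: antibody binding to individual SEZ6 domains displayed on yeast, measured by flow cytometry, antibody at 50 nM purified or hybridoma supernatant diluted 1:2, 90 min on ice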
T7 construct: yeast display
T7 sequence: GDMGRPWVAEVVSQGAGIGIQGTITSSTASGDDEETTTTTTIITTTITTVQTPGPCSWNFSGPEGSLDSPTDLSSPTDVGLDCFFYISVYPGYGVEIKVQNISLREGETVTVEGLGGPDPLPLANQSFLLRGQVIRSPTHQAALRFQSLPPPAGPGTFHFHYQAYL

- Kd (hSEZ6-ECD-His): < 1 nM
- binding result [1]: binds
- binding result [2]: binds
- binding result (human SEZ6L ECD-His): no binding (tested: 1 µg/mL)
- Kd (rSEZ6-ECD-His): < 1 nM
- binding result (human SEZ6L2 ECD-His): binds
B1: SC17.6 (antibody, V domains shown)
VH: EVQLQQSGPELMKPGASVKMSCKASGYTFTDYNMYWVKQNQGKSLEWIGEINPNNGGTAYNQKFRGKATLTVDKSSSTAYMELRSLTSEDSAVYYCARYDKGFDYWGQGTTLTVSS
VL: DIQMTQSPASLSVSVGETVTITCRASANINSNLVWYQQKQGKSPQLLVYAATNLADGVPSRFSGSGSGTQYSLKINSLQSEDFGNYYCQHFWGTPRTFGGGTKLEIK
notes: murine mAb; also called SC17.16 (duplicate)

- binding result [3]: binds
B2: SC17.85 (antibody, V domains shown)
VH: EVQLVESGGDLVKPGGSLKLSCAASGFTFSNYGMSWVRQTPDKRLEWVATISTGGTYTYYPDSVKGRFTISRDNAKNTLYLQMSSLKSEDTAMYYCVGQSYSDYVSFAYWGQGTQVTVSA
VL: DIVMTQAAFSNPVTLGTSASISCRSSKSLLHSNGITYLYWYLQKPGQSPQLLIYQMSNLASGVPERFSSSGSGSDFTLRISRVEAEDVGVYYCAQNLEHPTFGGGTKLEIK
notes: murine mAb

- binding result [3]: binds
B3: SC17.91 (antibody, V domains shown)
VH: EVQLVESGGGLVKPGGSRKLSCAASGFTFSDYGMHWVRQAPEKGLEWVAYISRGSSTIHYADTVKGRFTISRDNAKNTLFLQMTSLRSEDTAMYYCARPFNWYFDVWGAGTTVTVSS
VL: DVVMTQTPLSLPVSLGDQASISCRSSQSLVHSNGNTYLLWYLQKPGQSPKLLIYKVSNRFSGVPDRFSGSGSGTDFALKISRVEAEDLGVYFCSQSTHVPWTFGGGTKLEIK
notes: murine mAb

- binding result [3]: binds
B4: SC17.161 (antibody, V domains shown)
VH: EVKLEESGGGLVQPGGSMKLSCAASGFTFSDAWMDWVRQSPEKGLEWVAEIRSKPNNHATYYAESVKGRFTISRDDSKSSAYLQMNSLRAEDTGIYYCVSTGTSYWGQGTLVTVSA
VL: DIVMSQSPSSLAVSVGEKVTMNCESSQSLLYNSNQKNYLAWYQQKPGQSPKLLIYWASTRDSGVPDRFTGSGSGTDFTLTISSVRADDPAVYYCQQYFNYPLTFGAGTKLELK
notes: murine mAb

- Kd (hSEZ6-ECD-His): 5.3 nM
- binding result [1]: binds
- binding result [2]: binds
- binding result (human SEZ6L ECD-His): no binding (tested: 1 µg/mL)
- binding result (human SEZ6L2 ECD-His): binds
B5: SC17.19 (antibody, V domains shown)
VH: DVQLQESGPGLVKPSQSLSVTCTVTGYSITSSYTWNWIRQFPGNKLEWMGYIHYSGSTNYNPSLRSRISITRDTSKNQFFLQLNSVTTEDTATYYCARSRYYYDAYGFAYWGQGTLVTVSA
VL: DIVLTQSPASLAVSLGQRAAISCKPSQSVDYDGDSYMNWYQQKPGQPPKLLIYAASNLESGIPARFSGSGSGTDFTLNIHPVEEEDAATYYCHQINDDPWTFGGGTKLK
notes: murine mAb
